Test results as given in patent US20210388087A1 (Chugai, published 2021).
Residue numbers refer to the chain shown, from its start. Names and notes keep the numbering of the source. Blank lines part the entries; values can stand above or below the binder they belong to.

Legend:
[1] = molecular target: T1, Human CD3eg linker (human); assay: SPR, vs unmutated H183/L072
T1 construct: single-chain construct; also called recombinant human CD3
T1 chain: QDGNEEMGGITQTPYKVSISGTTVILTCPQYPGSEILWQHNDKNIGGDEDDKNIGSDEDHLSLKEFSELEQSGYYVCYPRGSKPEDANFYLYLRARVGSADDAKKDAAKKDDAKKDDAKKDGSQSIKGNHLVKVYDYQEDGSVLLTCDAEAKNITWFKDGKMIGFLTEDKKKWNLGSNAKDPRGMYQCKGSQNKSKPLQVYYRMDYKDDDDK

[2] = molecular target: T2, CD3 epsilon homodimer protein (UniProt P07766 23-126); assay: SPR, antibody over immobilised CD3e homodimer;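 note: SPR at 25 °C with CD3 epsilon homodimer amine-coupled to a CM4 sensor chip and antibody flowed over as analyte in HBS-EP+ running buffer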
T2 construct: also called CD3 (CD3 epsilon)
T2 sequence (P07766 23-126): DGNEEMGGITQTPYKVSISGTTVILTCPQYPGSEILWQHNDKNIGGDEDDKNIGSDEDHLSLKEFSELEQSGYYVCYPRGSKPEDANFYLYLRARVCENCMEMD

fold change of affinity [1]: 1.5 fold
B2: dBBDu183H A98N/dBBDu072L (antibody, name in Kabat numbering, V domains shown)
VH: QVQLVESGGGLVQPGRSLRLSCAASGFTFSNAWMHWVRQAPGKGLEWVAQIKDKGNAYAAYYAPSVKGRFTISRDDSKNSIYLQMNSLKTEDTAVYYCHYVHYNSASTVLPAFGVDAWGQGTTVTVSS
VL: DIVMTQSPLSLPVTPGEPASISCQASQELVHMNRNTYLHWYQQKPGQAPRLLIYKVSNRFPGVPDRFSGSGSGTDFTLKISRVEAEDVGVYYCAQGTSVPFTFGQGTKLEIK

fold change of affinity [1]: 0.7 fold
B3: dBBDu183H A98Q/dBBDu072L (antibody, name in Kabat numbering, V domains shown)
VH: B2 VH with N104Q
VL: B2 VL

fold change of affinity [1]: 1.4 fold
B4: dBBDu183H A98G/dBBDu072L (antibody, name in Kabat numbering, V domains shown)
VH: B2 VH with N104G
VL: B2 VL

fold change of affinity [1]: 5.9 fold
B5: dBBDu183H A98H/dBBDu072L (antibody, name in Kabat numbering, V domains shown)
VH: B2 VH with N104H
VL: B2 VL

fold change of affinity [1]: 0.4 fold
B9: dBBDu183H A98D/dBBDu072L (antibody, name in Kabat numbering, V domains shown)
VH: B2 VH with N104D
VL: B2 VL

fold change of affinity [1]: 4.6 fold
B10: dBBDu183H A98K/dBBDu072L (antibody, name in Kabat numbering, V domains shown)
VH: B2 VH with N104K
VL: B2 VL

KD ratio to GLS3000 [2]: 80.3
B11: CE115HA000/GLS3000 Y96H (antibody, IgG1, name in Kabat numbering, V domains shown)
VH: QVQLVESGGGVVQPGRSLRLSCAASGFTFSNAWMHWVRQAPGKGLEWVAQIKAKSNNYATYYAESVKGRFTISRDDSKNSLYLQMNSLKTEDTAVYYCRYVHYGAYYGVDAWGQGTTVTVSS
VL: B2 VL with Q24R, A25S, E28S, M32S, P61S, A94G, S98Q, F101H
notes: one-arm IgG1

KD ratio to GLS3000 [2]: 1.84
B12: CE115HA000/GLS3000 Y96L (antibody, IgG1, name in Kabat numbering, V domains shown)
VH: B11 VH
VL: B2 VL with Q24R, A25S, E28S, M32S, P61S, A94G, S98Q, F101L
notes: one-arm IgG1

fold change of affinity [1]: 12.1 fold
B13: dBBDu183H A98F/dBBDu072L (antibody, name in Kabat numbering, V domains shown)
VH: B2 VH with N104F
VL: B2 VL

fold change of affinity [1]: 0.3 fold
B15: dBBDu183H A98E/dBBDu072L (antibody, name in Kabat numbering, V domains shown)
VH: B2 VH with N104E
VL: B2 VL

Second part, the binder before the results:

B1: dBBDu183H P61V/dBBDu072L (antibody, name in Kabat numbering, V domains shown)
VH: B2 VH with P64V, N104A
VL: B2 VL
fold change of affinity [1]: 1.8 fold

B6: CE115HA000/GLS3000 Y96D (antibody, IgG1, name in Kabat numbering, V domains shown)
VH: B11 VH
VL: B2 VL with Q24R, A25S, E28S, M32S, P61S, A94G, S98Q, F101D
notes: one-arm IgG1
KD ratio to GLS3000 [2]: 40.9

B7: CE115HA000/GLS3000 Y96F (antibody, IgG1, name in Kabat numbering, V domains shown)
VH: B11 VH
VL: B2 VL with Q24R, A25S, E28S, M32S, P61S, A94G, S98Q
notes: one-arm IgG1
KD ratio to GLS3000 [2]: 0.86

B8: CE115HA000/GLS3000 Y96E (antibody, IgG1, name in Kabat numbering, V domains shown)
VH: B11 VH
VL: B2 VL with Q24R, A25S, E28S, M32S, P61S, A94G, S98Q, F101E
notes: one-arm IgG1
KD ratio to GLS3000 [2]: 46.8

B14: CE115HA000/GLS3000 Y32P (antibody, IgG1, name in Kabat numbering, V domains shown)
VH: B11 VH
VL: B2 VL with Q24R, A25S, E28S, M32S, Y37P, P61S, A94G, S98Q, F101Y
notes: one-arm IgG1
KD ratio to GLS3000 [2]: 62

B16: CE115HA000/GLS3000 Y32D (antibody, IgG1, name in Kabat numbering, V domains shown)
VH: B11 VH
VL: B2 VL with Q24R, A25S, E28S, M32S, Y37D, P61S, A94G, S98Q, F101Y
notes: one-arm IgG1
KD ratio to GLS3000 [2]: 25.9

B17: CE115HA000/GLS3000 Y32F (antibody, IgG1, name in Kabat numbering, V domains shown)
VH: B11 VH
VL: B2 VL with Q24R, A25S, E28S, M32S, Y37F, P61S, A94G, S98Q, F101Y
notes: one-arm IgG1
KD ratio to GLS3000 [2]: 4.51
